Reference: patent US20170369590A1 (published 2017)
Where a chain is given by its changes, count along the chain named.

B1: HuMab 169 (antibody, V domains shown)
VH: QVQLVQSGAEVKKPGASVKVSCKASGYTFTNYGISWVRQAPGQGLEWMGWLSAYSGNTIYAQKLQGRVTMTTDTSTTTAYMELRSLRSDDTAVYYCARDRIVVRPDYFDYWGQGTLVTVSS
VL: EIVLTQSPATLSLSPGERATLSCRASQSVSSYLAWYQQKPGQAPRLLIYDASNRATGIPARFSGSGSGTDFTLTISSLEPEDFAVYYCQQRSNWPRTFGQGTKVEIK
B2: HuMab 129 (antibody, V domains shown)
VH: QVQLVESGGGVVQPGRSLRLSCAASGFTFSTFAIHWVRQAPGKGLEWVAVISYDGGHKFYADSVKGRFTISRDNSKNTLYLQMNSLRAEDTAMYYCARGLGVWGAFDYWGQGTLVTVSS
VL: EIVLTQSPATLSLSPGERATLSCRASQSVSSYLAWYQQKPGQAPRLLIYDASNRATGIPARFSGSGSGTDFTLTISSLEPEDFAVYYCQQRSNWWTFGQGTKVEIK
B3: HuMab 098 (antibody, V domains shown)
VH: EVQLLESGGGLVQPGGSLRLSCAASGFTFSNYGMSWVRQAPGKGLEWVSAISGSAYSTYYADSVKGRFTISRDNSKNTLWLQMNSLRAEDTAVYYCAKAHYHGSGSYYTLFDYWGQGTLVTVSS
VL: DIQMTQSPSSLSASVGDRVTITCRASQGISSWLAWYQQKPEKAPKSLIYAASSLQSGVPSRFSGSGSGTDFTLTISSLQPEDFATYYCQQYNSYPYTFGQGTKLEIK
B4: HuMab 153 (antibody, V domains shown)
VH: QVQLVESGGGVVQPGRSLRLSCAASGFTFSDYVIHWVRQAPGKGLEWVTVISYDGSNKYYADSVKGRFTISRDNSKNTLYLQMNSLSAEDTAMYYCARGGITGTTGVFDYWGQGTLVTVSS
VL: B3 VL with A50D, S67Y, T72S, T85I, N92K, Y96I, K103R
B5: HuMab 050 (antibody, V domains shown)
VH: EVQLLESGGGLVQPGGSLRLSCAASGFTFSSYAMNWVRQAPGKGLEWVSAISGRGGTTYYADSVKGRFTISRDNSKNTLYLQMSSLRAEDTAVYYCAKARANWDYFDYWGQGTLVTVSS
VL: B3 VL with L11V, Q38H, E41G, S46L, S53I, Y91A, Y94F, Y96I, K103R
B6: HuMab 025 (antibody, V domains shown)
VH: QVQLQQWGAGLLKPSETLSLTCAVYGGSFSDYYWNWIRQPPGKGLEWIGEIHHSGSTNYNPSLKSRVTISVDTSKNQFSLKLSSVTAADTAVYYCARGYYDSGVYYFDYWAQGTLVTVSS
VL: B3 VL with S31R, Q55R, Y96I, K103R
B7: HuMab 159 (antibody, V domains shown)
VH: EVQLVQSGAEVKKPGESLKISCKGSGYNFTSYWIGWVRQMPGKGLEWMGIIYPGDSDTRYSPSFQGQVTISADKSISTAYLQWSSLKASDTAMYYCARWGTYYDILTGYFNWFDPWGQGTLVTVSS
VL: B3 VL with N92Y, S93I, Y96W, L104V
B8: HuMab 084 (antibody, V domains shown)
VH: QVQLVQSGAEVKKPGSSVKVSCKASGGTFRTYAINWVRQAPGQGLEWMGRINTVLGIVNHAQKFQGRVTITADKSTNTAYMELNSLRSEDTAVYYCAREKGVDYYYGIEVWGQGTTVTVSS
VL: DIQMTQSPSSVSASVGDRVTITCRASQGISSWLAWYQHKPGKAPKLLIYVASTLQSGVPSRFSGSGSGTDFTLTISSLQPEDFATYYCQQANSFPLTFGGGTKVEIK
B9: HuMab 132 (antibody, V domains shown)
VH: QVQLVQSGAEVKKPGASVKVSCKASGYTFTSYGISWVRQAPGQGLEWMGWISAYNGNSNYVQKFQGRVTMTTDTTTSTAYMELRSLTSDDTAVYYCAREYSYDSGTYFYYGMDVWGQGTTVTVSS
VL: EIVLTQSPATLSLSPGERATLSCRASQSVSSYLAWYQQKPGQAPRLLIYDASNRATGIPARFSGSGSGTDFTLTISSLEPEDFAVYYCQQRSNWPMYTFGQGTKLEIK
B10: HuMab 127 (antibody, V domains shown)
VH: EVQLVQSGAEVKKPGESLTISCKGSGYSFSIYWIGWVRQMPGKGLEWMGIIFPGDSDIRYSPSFQGQVTISADKSISTAYLQWSSLKASDTAMYYCARQPGDWSPRHWYFDLWGRGTLVTVSS
VL: VIWMTQSPSLLSASTGDRVTISCRMSQGISSYLAWYQQKPGKAPELLIYAASTLQSGVPSRFSGSGSGTDFTLTISYLQSEDFATYYCQQYYSFPLTFGGGTKVEIK

target: T1, human epidermal growth factor receptor 2 (HER2), membrane-bound on cells (human, UniProt P04626 23-1255); assay: FACS binding; A431 cells

Row | EC50 | Binder
1 | 0.415 µg/mL | B1
2 | 0.316 µg/mL | B2
3 | 0.101 µg/mL | B3
4 | 0.244 µg/mL | B4
5 | 1.14 µg/mL | B5
6 | 0.128 µg/mL | B6
7 | 0.855 µg/mL | B7
8 | 0.498 µg/mL | B8
9 | 0.068 µg/mL | B9
10 | 0.27 µg/mL | B10

target: T1, human epidermal growth factor receptor …; assay: FACS binding; AU565 cells

Row | EC50 | Binder
11 | 0.908 µg/mL | B1
12 | 0.578 µg/mL | B2
13 | 0.336 µg/mL | B3
14 | 0.626 µg/mL | B4
15 | 0.722 µg/mL | B5
16 | 0.58 µg/mL | B6
17 | 1.3 µg/mL | B7
18 | 0.491 µg/mL | B8
19 | 0.911 µg/mL | B9
20 | 2.29 µg/mL | B10
